Measurements: patent US20240360227A1

Columns and labels:
[1] = target: Recombinant human his-tagged IGF R extracellular domain protein (human) (UniProt P08069); assay: SPR, Ab captured via anti-huIgG Fc, pH 7.4
[2] = target: Recombinant human his-tagged IGF R extracellular domain protein (human) (UniProt P08069); assay: SPR, Ab captured via anti-huIgG Fc, dissociation at pH 6

| Binder | Kd [1] | koff [1] | kon [1] | Kd [2] | koff [2] | kon [2] |
| --- | --- | --- | --- | --- | --- | --- |
| VRDN-02049 (antibody, V domains shown) VH: QVQLQESGPGLVKPSETLSLTCTVSGYSITGGYLWNWIRQPPGKGLEWIGYISYDGTNNYKPSLKDRVTISRDTSKNQFSLKLSSVTAADTAVYYCARYGRVFFDYWGQGTLVTVSS VL: DIVMTQSPLSLPVTPGEPASISCRSSQSIVHSNGNTYLQWYLQKPGQSPQLLIYKVSNRHYGVPDRFSGSGSGTDFTLKISRVEAEDVGVYYCFQGSHVPWTFGQGTKVEIK | 0.946 nM | 7.92e-05 s⁻¹ | 83700 M⁻¹ s⁻¹ | 1.15 nM | 9.15e-05 s⁻¹ | 79500 M⁻¹ s⁻¹ |
| VRDN-02057 (antibody, V domains shown) VH: QVQLQESGPGLVKPSETLSLTCTVSGYSITGGYLWNWIRQPPGKGLEWIGYISYDGTNNYKPSLKDRVTISRDTSKNQFSLKLSSVTAADTAVYYCARYGRVFFDYWGQGTLVTVSS VL: DIVMTQSPLSLPVTPGEPASISCRSSQSIVHSNGNTYLQWYLQKPGQSPQLLIYKVSNRLYGVPDRFSGSGSGTDFTLKISRVEAEDVGVYYCFQGSHVPHTFGQGTKVEIK | 0.72 nM | 6.9e-05 s⁻¹ | 95800 M⁻¹ s⁻¹ | 1.4 nM | 0.000165 s⁻¹ | 118000 M⁻¹ s⁻¹ |
| VRDN-02053 (antibody, V domains shown) VH: QVQLQESGPGLVKPSETLSLTCTVSGYSITGGYLWNWIRQPPGKGLEWIGYISYDGTNNYKPSLKDRVTISRDTSKNQFSLKLSSVTAADTAVYYCARYGRVFFDYWGQGTLVTVSS VL: DIVMTQSPLSLPVTPGEPASISCRSSQSIVHSNGNTYLQWYLQKPGQSPQLLIYKVSNRLYGVPDRFSGSGSGTDFTLKISRVEAEDVGVYYCFQHSHVPWTFGQGTKVEIK | 7.18 nM | 0.00243 s⁻¹ | 338000 M⁻¹ s⁻¹ | 3.48 nM | 0.000193 s⁻¹ | 55600 M⁻¹ s⁻¹ |
| VRDN-02054 (antibody, V domains shown) VH: QVQLQESGPGLVKPSETLSLTCTVSGYSITGGYLWNWIRQPPGKGLEWIGYISYDGTNNYKPSLKDRVTISRDTSKNQFSLKLSSVTAADTAVYYCARYGRVFFDYWGQGTLVTVSS VL: DIVMTQSPLSLPVTPGEPASISCRSSQSIVHSNGNTYLQWYLQKPGQSPQLLIYKVSNRLYGVPDRFSGSGSGTDFTLKISRVEAEDVGVYYCFQGHHVPWTFGQGTKVEIK | 0.838 nM | 6.19e-05 s⁻¹ | 73900 M⁻¹ s⁻¹ | 1.14 nM | 8.07e-05 s⁻¹ | 70700 M⁻¹ s⁻¹ |
| VRDN-02051 (antibody, V domains shown) VH: QVQLQESGPGLVKPSETLSLTCTVSGYSITGGYLWNWIRQPPGKGLEWIGYISYDGTNNYKPSLKDRVTISRDTSKNQFSLKLSSVTAADTAVYYCARYGRVFFDYWGQGTLVTVSS VL: DIVMTQSPLSLPVTPGEPASISCRSSQSIVHSNGNTYLQWYLQKPGQSPQLLIYKVSNRLYGVPDRFSGSGSGTDFTLKISRVEAEDVGVYYCHQGSHVPWTFGQGTKVEIK | 1.03 nM | 7.59e-05 s⁻¹ | 74000 M⁻¹ s⁻¹ | 1.3 nM | 8.62e-05 s⁻¹ | 66600 M⁻¹ s⁻¹ |
| VRDN-02058 (antibody, V domains shown) VH: QVQLQESGPGLVKPSETLSLTCTVSGYSITGGYLWNWIRQPPGKGLEWIGYISYDGTNNYKPSLKDRVTISRDTSKNQFSLKLSSVTAADTAVYYCARYGRVFFDYWGQGTLVTVSS VL: DIVMTQSPLSLPVTPGEPASISCRSSQSIVHSNGNTYLQWYLQKPGQSPQLLIYKVSNRLYGVPDRFSGSGSGTDFTLKISRVEAEDVGVYYCFQGSHVPWHFGQGTKVEIK | 0.836 nM | 8.5e-05 s⁻¹ | 102000 M⁻¹ s⁻¹ | 1.18 nM | 9.52e-05 s⁻¹ | 80800 M⁻¹ s⁻¹ |

Next, values leading:

| Kd [1] | koff [1] | kon [1] | Kd [2] | koff [2] | kon [2] | Binder |
| --- | --- | --- | --- | --- | --- | --- |
| 0.55 nM | 4.17e-05 s⁻¹ | 75700 M⁻¹ s⁻¹ | 1.03 nM | 8.1e-05 s⁻¹ | 78800 M⁻¹ s⁻¹ | VRDN-02048 (antibody, V domains shown) VH: QVQLQESGPGLVKPSETLSLTCTVSGYSITGGYLWNWIRQPPGKGLEWIGYISYDGTNNYKPSLKDRVTISRDTSKNQFSLKLSSVTAADTAVYYCARYGRVFFDYWGQGTLVTVSS VL: DIVMTQSPLSLPVTPGEPASISCRSSQSIVHSNGNTYLQWYLQKPGQSPQLLIYKVSNHLYGVPDRFSGSGSGTDFTLKISRVEAEDVGVYYCFQGSHVPWTFGQGTKVEIK |
| 0.71 nM | 6.09e-05 s⁻¹ | 85800 M⁻¹ s⁻¹ | 1.16 nM | 0.000119 s⁻¹ | 102000 M⁻¹ s⁻¹ | VRDN-02005 (antibody, V domains shown) VH: QVQLQESGPGLVKPSETLSLTCTVSGYSIHGGYLWNWIRQPPGKGLEWIGYISYDGTNNYKPSLKDRVTISRDTSKNQFSLKLSSVTAADTAVYYCARYGRVFFDYWGQGTLVTVSS VL: DIVMTQSPLSLPVTPGEPASISCRSSQSIVHSNGNTYLQWYLQKPGQSPQLLIYKVSNRLYGVPDRFSGSGSGTDFTLKISRVEAEDVGVYYCFQGSHVPWTFGQGTKVEIK |
| 0.509 nM | 4.92e-05 s⁻¹ | 96600 M⁻¹ s⁻¹ | 1.1 nM | 0.000101 s⁻¹ | 91800 M⁻¹ s⁻¹ | VRDN-02055 (antibody, V domains shown) VH: QVQLQESGPGLVKPSETLSLTCTVSGYSITGGYLWNWIRQPPGKGLEWIGYISYDGTNNYKPSLKDRVTISRDTSKNQFSLKLSSVTAADTAVYYCARYGRVFFDYWGQGTLVTVSS VL: DIVMTQSPLSLPVTPGEPASISCRSSQSIVHSNGNTYLQWYLQKPGQSPQLLIYKVSNRLYGVPDRFSGSGSGTDFTLKISRVEAEDVGVYYCFQGSHHPWTFGQGTKVEIK |
| 0.237 nM | 1.98e-05 s⁻¹ | 83500 M⁻¹ s⁻¹ | 1.13 nM | 9.75e-05 s⁻¹ | 86000 M⁻¹ s⁻¹ | VRDN-02056 (antibody, V domains shown) VH: QVQLQESGPGLVKPSETLSLTCTVSGYSITGGYLWNWIRQPPGKGLEWIGYISYDGTNNYKPSLKDRVTISRDTSKNQFSLKLSSVTAADTAVYYCARYGRVFFDYWGQGTLVTVSS VL: DIVMTQSPLSLPVTPGEPASISCRSSQSIVHSNGNTYLQWYLQKPGQSPQLLIYKVSNRLYGVPDRFSGSGSGTDFTLKISRVEAEDVGVYYCFQGSHVHWTFGQGTKVEIK |
| 0.564 nM | 5.7e-05 s⁻¹ | 101000 M⁻¹ s⁻¹ | 1.33 nM | 0.000156 s⁻¹ | 117000 M⁻¹ s⁻¹ | VRDN-02052 (antibody, V domains shown) VH: QVQLQESGPGLVKPSETLSLTCTVSGYSITGGYLWNWIRQPPGKGLEWIGYISYDGTNNYKPSLKDRVTISRDTSKNQFSLKLSSVTAADTAVYYCARYGRVFFDYWGQGTLVTVSS VL: DIVMTQSPLSLPVTPGEPASISCRSSQSIVHSNGNTYLQWYLQKPGQSPQLLIYKVSNRLYGVPDRFSGSGSGTDFTLKISRVEAEDVGVYYCFHGSHVPWTFGQGTKVEIK |
| 0.603 nM | 6.7e-05 s⁻¹ | 111000 M⁻¹ s⁻¹ | 1.2 nM | 9.87e-05 s⁻¹ | 82000 M⁻¹ s⁻¹ | VRDN-02050 (antibody, V domains shown) VH: QVQLQESGPGLVKPSETLSLTCTVSGYSITGGYLWNWIRQPPGKGLEWIGYISYDGTNNYKPSLKDRVTISRDTSKNQFSLKLSSVTAADTAVYYCARYGRVFFDYWGQGTLVTVSS VL: DIVMTQSPLSLPVTPGEPASISCRSSQSIVHSNGNTYLQWYLQKPGQSPQLLIYKVSNRLHGVPDRFSGSGSGTDFTLKISRVEAEDVGVYYCFQGSHVPWTFGQGTKVEIK |
